Assay results reported in US20230125550A1 (ARCELLX, published 2023).

T1: AFP p26 (human, UniProt P02771 381-609)
T1 construct: The construct used is not described
T1 sequence: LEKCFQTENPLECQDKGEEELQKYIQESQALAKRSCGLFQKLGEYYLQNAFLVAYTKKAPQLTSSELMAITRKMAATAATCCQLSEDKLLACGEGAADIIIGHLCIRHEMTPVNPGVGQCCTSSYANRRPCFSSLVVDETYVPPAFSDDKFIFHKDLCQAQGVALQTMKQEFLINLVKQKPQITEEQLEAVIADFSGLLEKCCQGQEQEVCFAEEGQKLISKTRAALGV


Target: T1, AFP p26
Assay: phage ELISA, A450 target/A450 IgG1-Fc
Outline: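 Using VCSM13 helper phage, phage were rescued in 96-well format from single phagemid colonies taken from panning output. Wells were coated with 1.3 microg/ml goat anti-human IgG1-Fc antibody and captured 5 nM recombinant human target or IgG1-Fc before 50 microl of 5×-diluted phage were added, with binding read at 450 nm via HRP-conjugated anti-M13 antibody. Each clone's ELISA ratio is its target-to-IgG1-Fc absorbance, averaged across all screened wells with that clone.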

| ELISA_avg [ratio] | Binder |
| --- | --- |
| 14.8 | SEQ ID NO 770 (designed binder) MGSWVEFHYRLQAIDARLWALGGSEAELAAFEKEIAAFESELQAYKGKGNPEVEELRVHAAHIRKWLQAYRHN |
| 17.1 | SEQ ID NO 781 (designed binder) MGSWTEFEKRLHAIDYRLWALGGSEAELAAFEKEIAAFESELQAYKGKGNPEVEDLREHAAAIRHWLQAYRHN |
| 16.7 | SEQ ID NO 784 (designed binder) MGSWTEFVNRLYAIDSRLWALGGSEAELAAFEKEIAAFESELQAYKGKGNPEVEGLRTHAAKIRHWLQAYRHN |
| 30.8 | SEQ ID NO 788 (designed binder) MGSWLEFHSRLDAIDTRLWALGGSEAELAAFEKEIAAFESELQAYKGKGNPEVEKLREHAAAIRHYLQAYRHN |
| 29 | SEQ ID NO 786 (designed binder) MGSWVEFVSRLYAIDFRLWALGGSEAELAAFEKEIAAFESELQAYKGKGNPEVEALREHAAQIRDWLQAYRHN |
| 32.1 | SEQ ID NO 785 (designed binder) MGSWMEFVDRLSAIDRRLWALGGSEAELAAFEKEIAAFESELQAYKGKGNPEVEVLREHAANIRQWLQAYRHN |
| 20.9 | SEQ ID NO 776 (designed binder) MGSWYEFRARLLAIDERLWALGGSEAELAAFEKEIAAFESELQAYKGKGNPEVEHLREHAAHIRNFLQAYRHN |
| 24.4 | SEQ ID NO 782 (designed binder) MGSWTEFHQRLDAIDERLWALGGSEAELAAFEKEIAAFESELQAYKGKGNPEVEFLREHAAKIRMWLQAYRHN |
| 30.2 | SEQ ID NO 779 (designed binder) MGSWSEFFKRLEAIDRRLWALGGSEAELAAFEKEIAAFESELQAYKGKGNPEVEELREHAAHIRVWLQAYRHN |
| 29.7 | SEQ ID NO 789 (designed binder) MGSWTEFYQRLDAIDTRLWALGGSEAELAAFEKEIAAFESELQAYKGKGNPEVEGLRQQAAQIRAWLQAYRHN |
| 11.7 | SEQ ID NO 799 (designed binder) MGSWVEFVTRLEAIEDRLFALGGSEAELAAFEKEIAAFESELQAYKGKGNPEVEHLRAHAAHIRHWLQAYRHN |
| 30.5 | SEQ ID NO 778 (designed binder) MGSWTEFQNRLNAIDHRLWALGGSEAELAAFEKEIAAFESELQAYKGKGNPEVESLREHAAKIRVWLQAYRHN |
| 28.7 | SEQ ID NO 773 (designed binder) MGSWNEFFQRLNAIDERLWALGGSEAELAAFEKEIAAFESELQAYKGKGNPEVEDLRQHAANIRWWLQAYRHN |
| 16 | SEQ ID NO 775 (designed binder) MGSWYEFYLRLDAIDHRLWALGGSEAELAAFEKEIAAFESELQAYKGKGNPEVEMLREHAAHIRKWLQAYRHN |
| 30.1 | SEQ ID NO 800 (designed binder) MGSWYEFVIRLDAIEDRLFALGGSEAELAAFEKEIAAFESELQAYKGKGNPEVEHLRVHAAHIRVWLQAYRHN |
| 26 | SEQ ID NO 771 (designed binder) MGSWVEFVGRLNAIDARLWALGGSEAELAAFEKEIAAFESELQAYKGKGNPEVEELRHHAAEIRNWLQAYRHN |

| ELISA_avg [ratio] | Binder |
| --- | --- |
| 10 | SEQ ID NO 772 (designed binder) MGSWNEFMDRLNAIDNRLWALGGSEAELAAFEKEIAAFESELQAYKGKGNPEVENLRKQAASIRLWLQAYRHN |
| 23.5 | SEQ ID NO 787 (designed binder) MGSWSEFHTRLDAIDTRLWALGGSEAELAAFEKEIAAFESELQAYKGKGNPEVEDLRRHAAAIRFWLQAYRHN |
| 29.6 | SEQ ID NO 793 (designed binder) MGSWYEFYYRLEAIDNRLIALGGSEAELAAFEKEIAAFESELQAYKGKGNPEVEVLREHAAKIREWLQAYRHN |
| 30.4 | SEQ ID NO 783 (designed binder) MGSWLEFSQRLTAIDSRLWALGGSEAELAAFEKEIAAFESELQAYKGKGNPEVENLREHAAKIRNWLQAYRHN |
| 33.1 | SEQ ID NO 794 (designed binder) MGSWYEFVSRLEAIDDRLYALGGSEAELAAFEKEIAAFESELQAYKGKGNPEVEMLRQHAAAIRHWLQAYRHN |
| 19.4 | SEQ ID NO 798 (designed binder) MGSWYEFMYRLDAIEYRLFALGGSEAELAAFEKEIAAFESELQAYKGKGNPEVESLRIHAAMIREWLQAYRHN |
| 18.2 | SEQ ID NO 774 (designed binder) MGSWYEFVVRLFAIDERLWALGGSEAELAAFEKEIAAFESELQAYKGKGNPEVESLREHAAHIRSWLQAYRHN |
| 30.8 | SEQ ID NO 803 (designed binder) MGSWSEFYYRLAAIESRLFALGGSEAELAAFEKEIAAFESELQAYKGKGNPEVERLREHAAHIRRWLQAYRHN |
| 30.8 | SEQ ID NO 792 (designed binder) MGSWYEFYKRLEAIDNRLYALGGSEAELAAFEKEIAAFESELQAYKGKGNPEVEYLREHAAAIRHWLQAYRHN |
| 27.3 | SEQ ID NO 780 (designed binder) MGSWYEFQQRLEAIDTRLWALGGSEAELAAFEKEIAAFESELQAYKGKGNPEVEELREHAAHIRHWLQAYRHN |
| 20.3 | SEQ ID NO 796 (designed binder) MGSWFEFFERLAAIEDRLWALGGSEAELAAFEKEIAAFESELQAYKGKGNPEVESLRVHAAAIRAFLQAYRHN |
| 16.9 | SEQ ID NO 802 (designed binder) MGSWSEFVHRLDAIEVRLFALGGSEAELAAFEKEIAAFESELQAYKGKGNPEVEELRYHAAKIRSWLQAYRHN |
| 27.4 | SEQ ID NO 804 (designed binder) MGSWYEFYLRLSAIEDRLFALGGSEAELAAFEKEIAAFESELQAYKGKGNPEVESLRVQAAHIRTWLQAYRHN |
| 26 | SEQ ID NO 795 (designed binder) MGSWYEFSHRLEAIEDRLFALGGSEAELAAFEKEIAAFESELQAYKGKGNPEVEPLREHAAYIRHWLQAYRHN |
| 18.3 | SEQ ID NO 797 (designed binder) MGSWIEFKYRLDAIEWRLEALGGSEAELAAFEKEIAAFESELQAYKGKGNPEVESLRIHAAAIRTWLQAYRHN |
| 23.8 | SEQ ID NO 801 (designed binder) MGSWVEFVERLDAIEFRLFALGGSEAELAAFEKEIAAFESELQAYKGKGNPEVEKLRNHAAHIRSWLQAYRHN |
